Assay results reported in patent US20030124704A1 (YALE UNIVERSITY, published 2003).

Target: Alkaline phosphatase-hNogo-A(1055-1120) (human, UniProt P05187 23-511)
Assay: AP-fusion ligand binding to COS-7 cells transfected with myc-mNgR3; expression checked by anti-myc staining and immunoblot
From the text: The mouse NgR3 cDNA was amplified by PCR from mouse adult brain cDNA, from the signal sequence to the stop codon, and ligated into the pSecTag2 vector such that the vector encodes a signal sequence followed by a myc tag followed by the mature mNgR3 sequence. This plasmid was transfected into COS07cells, and expression of a myc-tagged protein of the predicted size was verified by immunoblot analysis.

Sequence of Alkaline phosphatase-hNogo-A(1055-1120) (P05187 other isoform, or with tags, fused parts or gaps): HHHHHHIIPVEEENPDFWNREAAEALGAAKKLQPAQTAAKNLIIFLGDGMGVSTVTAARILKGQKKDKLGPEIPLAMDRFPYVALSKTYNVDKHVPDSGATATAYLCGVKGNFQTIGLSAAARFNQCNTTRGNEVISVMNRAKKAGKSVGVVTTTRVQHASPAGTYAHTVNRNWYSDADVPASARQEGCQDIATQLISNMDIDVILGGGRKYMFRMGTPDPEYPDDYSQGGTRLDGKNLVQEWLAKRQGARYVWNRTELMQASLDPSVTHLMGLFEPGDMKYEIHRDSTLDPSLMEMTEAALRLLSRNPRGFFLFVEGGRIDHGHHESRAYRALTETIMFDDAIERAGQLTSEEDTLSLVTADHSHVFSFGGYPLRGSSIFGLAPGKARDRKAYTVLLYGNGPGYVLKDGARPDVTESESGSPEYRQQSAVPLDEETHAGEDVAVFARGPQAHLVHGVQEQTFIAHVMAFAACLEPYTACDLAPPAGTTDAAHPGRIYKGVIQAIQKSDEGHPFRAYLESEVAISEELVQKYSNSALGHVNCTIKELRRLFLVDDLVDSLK

binding result: no binding
B1: myc epitope-tagged mouse NgR3 (mNgR3) expressed on COS-7 cells (receptor, not shown: small tags and cut ends)
chain: CPRDCVCYPAPMTVSCQAHNFAAIPEGIPEDSERIFLQNNRITFLQQGHFSPAMVTLWIYSNNITFIAPNTFEGFVHLEELDLGDNRQLRTLAPETFQGLVKLHALYLYKCGLSALPAGIFGGLHSLQYLYLQDNHIEYLQDDIFVDLVNLSHLFLHGNKLWSLGQGIFRGLVNLDRLLLHENQLQWVHHKAFHDLHRLTTLFLFNNSLTELQGDCLAPLVALEFLRLNGNAWDCGCRARSLWEWLRRFRGSSSAVPCATPELRQGQDLKLLRVEDFRNCTGPVSPHQIKSHTLTTSDRAARKEHHPSHGASRDKGHPHGHPPGSRSGYKKAGKNCTSHRNRNQISKVSSGKELTELQDYAPDYQHKFSFDIMPTARPKRKGKCARRTPIRAPSGVQQAS
notes: The cDNA was amplified from mouse adult brain; Any processing of the C-terminal GPI signal is not described; also called myc-NgR3
